Data as given in PMC10139993.

T1: Fused in sarcoma (FUS) wildtype with N-terminal GFP tag, P35637
T1 chain: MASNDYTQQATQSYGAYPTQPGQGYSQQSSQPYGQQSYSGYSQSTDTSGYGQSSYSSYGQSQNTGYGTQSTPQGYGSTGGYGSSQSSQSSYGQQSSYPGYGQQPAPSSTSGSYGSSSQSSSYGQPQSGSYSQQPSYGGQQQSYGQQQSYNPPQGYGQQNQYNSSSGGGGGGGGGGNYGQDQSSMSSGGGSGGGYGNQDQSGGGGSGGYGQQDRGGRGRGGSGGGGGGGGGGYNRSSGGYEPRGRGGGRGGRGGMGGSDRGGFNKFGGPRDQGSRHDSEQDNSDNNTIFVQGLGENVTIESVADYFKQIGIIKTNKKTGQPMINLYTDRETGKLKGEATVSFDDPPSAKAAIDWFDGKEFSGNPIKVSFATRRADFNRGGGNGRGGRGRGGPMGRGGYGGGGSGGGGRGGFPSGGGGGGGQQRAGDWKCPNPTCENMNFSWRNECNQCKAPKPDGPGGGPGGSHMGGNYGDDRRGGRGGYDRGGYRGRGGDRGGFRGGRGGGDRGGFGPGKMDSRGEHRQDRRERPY


What was measured:
[1] = molecular target: GFP only (eGFP expressed from the pcDNA3.1(+)-N-eGFP backbone without gene insertion); assay: single-molecule pull-down (SiMPull) with GFP photobleaching step counting; diluted NP40 lysate (1:100-1:10,000 in T50: 10 mM Tris-Cl pH 8.0, 50 mM NaCl) of transfected SH-SY5Y cells flowed over a PEG/neutravidin surface with biotinylated anti-GFP antibody; 488 nm TIRF, room temperature; photobleaching steps counted per spot; 30% dimers subtracted for GFP self-dimerisation; cells without or with 0.4 M sorbitol 4 h (also arsenite) before lysis
[2] = molecular target: T1, Fused in sarcoma (FUS) wildtype with …; assay: single-molecule pull-down (SiMPull) with GFP photobleaching step counting; diluted NP40 lysate (1:100-1:10,000 in T50: 10 mM Tris-Cl pH 8.0, 50 mM NaCl) of transfected SH-SY5Y cells flowed over a PEG/neutravidin surface with biotinylated anti-GFP antibody; 488 nm TIRF, room temperature; photobleaching steps counted per spot; 30% dimers subtracted for GFP self-dimerisation; cells without or with 0.4 M sorbitol 4 h …; settings: remark: other sources report otherwise

| percent dimers [1] [%] | percent monomers [1] [%] | average photobleaching step (after subtracting the GFP self-dimer fraction) [2] [steps] | increase in average photobleaching steps with sorbitol stress [2] [steps] | Molecule |
| --- | --- | --- | --- | --- |
| 30 | 70 | – | – | GFP only (eGFP expressed from the pcDNA3.1(+)-N-eGFP backbone without gene insertion) |
| – | – | 1.5 | 0.5 | Fused in sarcoma (FUS) wildtype with N-terminal GFP tag, P35637 1-526 (natural protein) MASNDYTQQATQSYGAYPTQPGQGYSQQSSQPYGQQSYSGYSQSTDTSGYGQSSYSSYGQSQNTGYGTQSTPQGYGSTGGYGSSQSSQSSYGQQSSYPGYGQQPAPSSTSGSYGSSSQSSSYGQPQSGSYSQQPSYGGQQQSYGQQQSYNPPQGYGQQNQYNSSSGGGGGGGGGGNYGQDQSSMSSGGGSGGGYGNQDQSGGGGSGGYGQQDRGGRGRGGSGGGGGGGGGGYNRSSGGYEPRGRGGGRGGRGGMGGSDRGGFNKFGGPRDQGSRHDSEQDNSDNNTIFVQGLGENVTIESVADYFKQIGIIKTNKKTGQPMINLYTDRETGKLKGEATVSFDDPPSAKAAIDWFDGKEFSGNPIKVSFATRRADFNRGGGNGRGGRGRGGPMGRGGYGGGGSGGGGRGGFPSGGGGGGGQQRAGDWKCPNPTCENMNFSWRNECNQCKAPKPDGPGGGPGGSHMGGNYGDDRRGGRGGYDRGGYRGRGGDRGGFRGGRGGGDRGGFGPGKMDSRGEHRQDRRERPY |
